According to PMC6588694:

Target: concanavalin A
Assay: SEC; Superdex 200 Increase 10/300 GL, 50 mM Tris, 150 mM NaCl, 100 mM glucose; molecular weight calibrated with a gel filtration calibration kit

concanavalin A (natural protein)
stoichiometry N: 4
